The supplement of paper PMC9170038

Tested on: MS2 coat protein
Assay: apparent KD of MS2 coat protein; higher = weaker reporter binding
Conditions: Eterna round: R107
Protocol: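 RNA-MaP round R107: designed RNA switches with theophylline, tryptophan, arginine or FMN aptamers are transcribed on-chip within common flanks. They are titrated with SNAP-549-labelled MS2 coat protein in RNA-MaP buffer (100 mM Tris pH 7.5, 80 mM KCl, 4 mM MgCl2), without ligand or with the indicated ligand. Median apparent KD per design.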

[1] = input ligand: theophylline 20 uM
[2] = input ligand: tryptophan 2.4 mM
[3] = input ligand: theophylline 2 mM

Sequence | apparent KD of MS2 coat protein (input ligand: arginine 13.2 mM) | apparent KD of MS2 coat protein [1] | apparent KD of MS2 coat protein [2] | apparent KD of MS2 coat protein [3] | apparent KD of MS2 coat protein (input ligand: none)
AAAACACAUGAGGAUCACCCAUGUCGUGAUACCAGUCAACAUGAGGACCCUUGGCAGCAUAAAAUGGGUAACAUGAGGAUAACCC [AstrosEXyTheA#3] | 75.4 nM | 105 nM | 101 nM | – | –
AAAAUAAAUAAAACGCGUAACAUGAAGGAUACCAGCCAGAAAACUGGCCCUUGGCAGCCUCUACAUGAGGAUCACCCAUGUCGCG [Mat - Same State Theophlline A - Mod of Eli - D15] | 161 nM | 141 nM | 332 nM | – | –
AAACAUGAGGAUCACCCAUGUAUACUUAGACGAGGACCGGUACGGCCGCCACUCGAACUUCAAGAUUUGGCGGAAAAUGUAUGUA [JR_ExcTryptoA_Sub022] | 9.71 nM | 13 nM | – | 12.1 nM | –
AAACAUGAGGAUCACCCAUGUUGAGGAUCACGAGGACCGGUACGGCCGCCACUCGACAUGAGGAUCACCCAUGUGAGGAUCACCC [Same State - Tryptophan A #1] | 52.5 nM | 214 nM | – | 337 nM | –
AAACGUUGCUGCGAUACCAGACAUGAGGAUCACCCAUGUACCAAGGUAACCGAAAGGCAUGUCCCUUGGCAGCGCAGCAACGAAA [MAT - Exclusion Theophlline B - Mod of Eli - D17] | 14.8 nM | 18.9 nM | 13.5 nM | 262 nM | 11.1 nM
AAACGUUGCUGCGAUACCAGACAUGAGGAUCACCCAUGUACCGAGGUACCCGAAAGGAAUGUCCCUUGGCAGCGCAGCAACGAAA [MAT - Exclusion Theophlline B - Mod of Eli - D24] | 11.2 nM | 15.3 nM | 11.7 nM | 124 nM | 11.7 nM
AAAGAUCGGAAACGAUCGGCGGCUUGGGCGCGAGGACCGGUACGGCCGCCACUCGGGAAACAUGAGGAUCACCCAUGUUGCUUCU [ETA NP+V+V2 #16] | 10 nM | 12.5 nM | – | 11.9 nM | –
AAAGGACAUGAGGAUCACCCAUGUCUCGAUACCAGCCGAUCAUCAGGCCCUUGGCAGCGAGACAAGGGUCAUGGAUCGCGGUUCU [Beerusmage] | 11.7 nM | 17.4 nM | 13.9 nM | 12.3 nM | 11.4 nM
AAAGGCGGGCAGGAUACCAGCGCUAACAUGAGGAUCACCCAUGUACAAAUAAUAACAUGGUGCCCUUGGCAGCCUGGGCGUCUGC [Usedlati] | 26.6 nM | 150 nM | 61.3 nM | – | –
AAAUAAACAUCGGCCGCCACUUACUCAUGAGGUAACAACAUGAGGAUCACCCAUGUUUGAGGAUCAAGGACCGGGAUGUAAUAAA [AstrosSSTryB#1] | 23.1 nM | 33.6 nM | 19.6 nM | 32.9 nM | 27.3 nM
AAAUAAAUCACAUGAGGAUCACCCAUGGAUACCAGGCCUGGAAACAGCCCUUGGCAGCCACAUGAGGAUCACCCAUGUGCUAAAU [MAT - Exclusion Theophlline A - Mod of Eli - D2] | 98.4 nM | 207 nM | 140 nM | – | –
AAAUACAUGAGGAUCACCCAUGUCAAUAAUCGAGGACCGGUACGGCCGCCACUCGAUCGGCCAAGAAAAUGAAAGAUGAUCUCUA [theeternabot_sameState_MS2_Trp_A_8] | 18.1 nM | 37.5 nM | – | 27.4 nM | –
AACAAUGCACAUGAGGAUCACCCAUGUGAUACCAGCCGCAACAUAGGCCCUUGGCAGCAUGUGGGUAUAGAACGAUUUGGCUGAA [Xeanle] | 24.4 nM | 85.3 nM | 41.7 nM | – | –
AACAGGGCUCGCACGAAGCCCUAAGGUGAUACCAGCACAUGUAAGUGCCCUUGGCAGCACGGUACAUGAGGAUCACCCAUGUAGA [Isleenen] | 19.7 nM | 182 nM | 59.4 nM | – | –
AACAUACAAUUUUAGGUGGAUAUAAGGCGGCGAGGACCGGUACGGCCGCCACUCGCGUACAUGAGGAUCACCCAUGUCUGAAGCU [Same State - Tryptophan A (Freestyle 6)] | 12.8 nM | 21.7 nM | 21.4 nM | 27.3 nM | 21.7 nM
AACAUACAUGAGGAUCACCCAUGUCACGAUACCAGAUACAUGAGGAUCCCUUGGCAGCGUCAUGAGGAUCACCCAUGUUGUACAU [Exclusion Theophylline A 2] | 20.3 nM | 22.7 nM | 17.7 nM | – | –
AACAUGAGGAUCACCCAUGUCCUCGUGAUUCGAGGACCGGUACGGCCGCCACUCGGUCCUCGCGAGGUGGAGUCAAAGACUCCAA [Omei Trp A SS A v3] | 72.3 nM | 487 nM | 327 nM | 425 nM | 384 nM

Sequence | apparent KD of MS2 coat protein (input ligand: arginine 13.2 mM) | apparent KD of MS2 coat protein [1] | apparent KD of MS2 coat protein [2] | apparent KD of MS2 coat protein [3] | apparent KD of MS2 coat protein (input ligand: none)
AACAUGAGGAUCACCCAUGUGUCCCUUGAUACCAGUCCCAUGUGAGACCCUUGGCAGCAAACAUGAGGAUCACCCAUGUCCCAUG [Same State Theophylline A 3] | 60.9 nM | 119 nM | 90.2 nM | – | –
AACGCGGUGAUGGUAGCCGGACGCUAGGUACGAGGACCGGUACGGCCGCCACUCGGAGUCCUACGACAUGAGGAUCACCCAUGUA [Same State Trp A GF15] | 53.9 nM | 140 nM | – | 145 nM | –
AACGUAUACAGAAGGAGCGUGAAUUAUUUUAUUUUUUUAUAAACAUGAGGAUCACCCAUGUCACAGGUAGGUCGCUGUAUUCGUA [JR_ExcArginiB_Sub018] | 23.8 nM | 40.5 nM | 19.2 nM | 22.8 nM | 18.4 nM
AACUAAUCACAUGAGGAUCACCCAUGUGAUACCAGCUAAUCCCAAAGCCCUUGGCAGCACCUUUGGGUCCCGGUGUGUUUGAACA [Onceesa] | 9.42 nM | 12.3 nM | 9.33 nM | – | –
AAGCAGGGUGUAAAAUAAAUAAUCACUGAUACCAGACUAUGAGAUGUCCCUUGGCAGCAGAAACAUGAGGAUCACCCAUGUAAUA [JR_Nu_ExcTheophyA_Sub029] | 21.1 nM | 28.4 nM | 27.3 nM | – | –
AAGCUGACAAGAAGGUGUUCCUAAGCUGAUACCAGCCUGGAAACAGGCCCUUGGCAGCAGCACAUGAGGAUCACCCAUGUAAUAA [(T)'-(M)'-(T1)-(T2)-(M1)-(M2)_Design2(Mismatches)] | 101 nM | 172 nM | 115 nM | – | –
AAGUGGCACGGAAGGAGCGAGUUUGCCUAUUACAUGAGGAUCACCCAUGUGGGUAAUGGGACUCAGGUAGGUCGCCGUUGUCACU [Same State Arginine B GF 26] | 29.5 nM | 48.5 nM | 46.3 nM | 42 nM | 56.8 nM
AAUAAACAUGAGGAUCACCCAUGUAGGGUGCGAGGACCGGUACGGCCGCCACUCGGGUGAAAACAUGAAAAUCACCCAUGUAAAA [Mat - Exclusion - Trytophan A - D24] | 113 nM | 192 nM | 232 nM | 206 nM | 125 nM
AAUAACAUGAGGAUCACCCAUGUAAAAGAUACCAGAGUGAUGAUCCUCCCUUGGCAGCUUAACGCUGAUUGGAAACAAUCAGCGA [Mat - Same State Theophlline A - Mod of Eli - D1] | 34.1 nM | 268 nM | 67.6 nM | – | –
AAUAACAUGAGGAUCACCCAUGUAAGUAAACGAGGACCGGUACGGCCGCCACUCGAAUAAAUAAAGUACCGGUAAGAUCCAGGGA [Default title] | 14.6 nM | 19 nM | – | 15.4 nM | –
AAUAACAUGAGGAUCACCCAUGUAAGUGGGCGAGGACCGGUACGGCCGCCACUCGGAUGAUGUUGACGAAAAGUCAGCAUCAUCA [#OpenEnded 2 #GuTurnoff #Tail] | 25.9 nM | 31.3 nM | 55.1 nM | 34.1 nM | 24.7 nM
AAUAAUAAGGCGGCCGCCACUAAACAUGAGGAUCACCCAUGUCUCGAGCGCAUGCAUAAGGGAUGUAGGACCGGGCCAAUAAUAA [Exclusion - Tryptophan B (Freestyle 2)] | 22 nM | 32.6 nM | 23.6 nM | 27.9 nM | 29.7 nM
AAUAAUAGGUGAUCCUAACGAGUGGCAUAACGAGGACCGGUACGGCCGCCACUCGAACAUGAGGAUCACCCAUGUAGUCACUCGA [M'-T'-T-MS2-T'' - Design 5] | 82.9 nM | 280 nM | – | 751 nM | –
AAUAAUAGGUGAUCUUGAGUCGUACCGUAACGAGGACCGGUACGGCCGCCACUCGAACAUGAGGAUCACCCAUGUAUGUAUGAUA [whbob_SS_trypto A_f6] | 48.6 nM | 128 nM | – | 276 nM | –
AAUAUUAUGUCGGCCGCCACUUCCCACAAGAGGUGCCUGCACCCACAUGAGGAUCACCCAUGUCGAAGGACCGGGACGCUCAAUU [theeternabot_sameState_MS2_Trp_B_35] | 20.5 nM | 23.6 nM | – | 21.6 nM | –
AAUCAUGGAAACAUGACAUGAGGGUUGCUCCGAGGACCGGUACGGCCGCCACUCGCGAGGAGGCGGACAUGAGGAUCACCCAUGU [#05 Tryptophan A Same State] | 40.3 nM | 280 nM | 68.2 nM | 328 nM | 252 nM
